# Reference: article PMC3188500
# Target: TATA binding protein (TBP) (UniProt P20226)
# Assay: fluorescence (FAM/BHQ transcription factor beacon titration)
# Conditions: 5 mM MgCl2; no depletant; value stated in text next to ref 35, may come from it; internal BHQ after the T at position 20; 50 mM sodium phosphate pH 7.0, 150 mM NaCl, 5 mM MgCl2, 25 °C; 10 nM labeled TF switch
# Chain of UniProt P20226 (P20226 whole entry): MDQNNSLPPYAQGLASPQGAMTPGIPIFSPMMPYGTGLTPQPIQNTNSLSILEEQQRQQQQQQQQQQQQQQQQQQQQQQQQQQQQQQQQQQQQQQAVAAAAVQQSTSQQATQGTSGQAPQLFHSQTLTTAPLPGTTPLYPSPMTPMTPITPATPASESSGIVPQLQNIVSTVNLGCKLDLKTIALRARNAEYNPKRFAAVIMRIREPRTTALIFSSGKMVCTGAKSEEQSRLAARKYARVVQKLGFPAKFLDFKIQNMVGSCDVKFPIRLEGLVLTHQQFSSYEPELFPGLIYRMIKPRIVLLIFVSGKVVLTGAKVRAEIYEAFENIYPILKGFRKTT
sequence,measurement,value
TACTTTTATATAAATAAGTTGTGATTTTTATATATTTCAC [TFprobe (transcription factor beacon/switch)],Kd,45 nM
